The record followed here is US8969060B2, “Modified glucose dehydrogenase” (Ikeda Food Research Co., Ltd., priority 2011, dated 2015).

Series [1] can be described thus: Relative enzymatic activity of GLD (DCIP/1-m-PMS, plate reader, yeast culture supernatant) with 1,10-phenanthroline present. Particulars: site-specific mutants, inhibitor final concentration 1 mM. Type of series: biochemical. Here is the method: (§1) The susceptibility defined in the present specification is evaluated in terms of a relative activity that is determined in a system wherein the inhibitor coexists or not. The relative activity is derived from a relative value (%) of an enzymatic activity (a sample value) obtained with the addition of the inhibitor in the determination of the enzymatic activity described in the present specification as compared with an enzymatic activity (a blank value) as “100%” obtained without the addition of the inhibitor in the same determination. Thus, the higher the relative activity is, the less the susceptibility to the inhibitor is (or the more the susceptibility to the inhibitor is reduced), vice versa.
(§2) The enzymatic activity is determined in the following manner in Examples 3 and 6 wherein a plate reader (Japan Molecular Device Corporation, SpectraMax Plus384) is used. Thus, culture supernatant that had been diluted in advance with an appropriate magnification is added to a 96-well microplate with an amount of 100 μl per well. A reagent for the determination of the enzymatic activity comprising phosphate buffer (pH 7.0), 1.0 M D-glucose, 3 mM DCIP, 3 mM 1-m-PMS and methanol with a volume ratio of 0.1:1:0.14:0.2:0.06 is added to the 96-well microplate with an amount of 100 μl per well, and a change in the absorbance of DCIP at 600 nm (ΔABS/min) is then determined. The enzymatic activity can be calculated by conversion in proportion to a change in the absorbance of an enzyme solution for which the enzymatic activity has already been known by the above-mentioned activity determination procedure using the spectrophotometer.
(§3) In the following examples, a value of the enzymatic activity determined by the spectrometer or plate reader using the above reagent composition is considered as a blank value. On the other hand, a sample value is determined using a methanol solution comprising the inhibitor such as 1,10-phenanthroline or proflavin hydrochloride at a final concentration of 1 mM instead of the methanol. Enzymatic activity (unit/mL)=(−ΔABS/16.3)×3.0/0.05×(Dilution ratio of enzyme) [Equation 1]
Into each well of a 96-well microplate (manufactured by Nunc, Inc.), a YPD medium containing 125 μL of 1.0% (w/v) yeast extract (manufactured by BD), 2.0% (w/v) tryptone (manufactured by BD), 2.0% (w/v) glucose (manufactured by Wako Pure Chemical Industries, Ltd.) was dispensed, and the transformant colonies obtained in Example 2 were inoculated thereinto one by one.
After shaking culture at 30° C. and 1,000 rpm for 24 hours, the culture mixture was centrifuged and the supernatant was collected.
According to the above-mentioned method for the determination of enzymatic activity, a blank value and a sample value were determined using a plate reader, and the relative activity (%) was obtained by dividing the sample value by the blank value.

Series [2] can be described thus: Relative enzymatic activity of GLD (DCIP/1-m-PMS, plate reader, yeast culture supernatant) with proflavin hydrochloride present. Particulars: site-specific mutants, inhibitor final concentration 1 mM. It counts as biochemical. Here is the method:
as §1, §2, §3

B1: D343S: modified GLD: SEQ ID NO: 1 with substitution D343S (protein, listed as Aspergillus terreus)
chain: MLGKLSFLSALSLAVAAPLSNSTSAKYDYIVIGGGTSGLAVANRLSEDPNVNVLILEAGGSVWNNPNVTNVDGYGLAFGSDIDWQYQSVNQPYGGNLSQVLRAGKALGGTSTINGMAYTRAEDVQIDAWETIGNTGWTWKNLFPYYRKSENFTVPTKSQTSLGASYEAGAHGHEGPLDVAFTQIESNNLTTYLNRTFQGMGLPWTEDVNGGKMRGFNLYPSTVNLEEYVREDAARAYYWPYKSRPNLHVLLNTFANRIVWDGEAHDGHITASGVEITSRNGTVRVINAEKEVIVSAGALKSPAILELSGIGNPSVLDKHNIPVKVNLPTVGENLQDQVNSHMSASGNTSISGTKAVSYPDVYDVFGDEAESVAKQIRANLKQYAADTAKANGNIMKAADLERLFEVQYDLIFKGRVPIAEVLNYPGSATSVFAEFWALLPFARGSVHIGSSNPAEFPVINPNYFMLDWDAKSYVAVAKYIRRSFESYPLSSIVKESTPGYDVIPRNASEQSWKEWVFDKNYRSNFHPVGTAAMMPREIGGVVDERLNVYGTTNVRVVDASVLPFQVCGHLVSTLYAVAERAADLIKADAGRR
modifications: SIGNAL (1)..(19)
Consider B1, for which the “Relative Activity [%] 1,10-Phenanthroline” value in series [1] is 70.1%. In series [2], the “Relative Activity [%] Proflavin hydrochloride” value is recorded as 48.3%.

B2: D343V: modified GLD: SEQ ID NO: 1 with substitution D343V (protein, listed as Aspergillus terreus)
chain: MLGKLSFLSALSLAVAAPLSNSTSAKYDYIVIGGGTSGLAVANRLSEDPNVNVLILEAGGSVWNNPNVTNVDGYGLAFGSDIDWQYQSVNQPYGGNLSQVLRAGKALGGTSTINGMAYTRAEDVQIDAWETIGNTGWTWKNLFPYYRKSENFTVPTKSQTSLGASYEAGAHGHEGPLDVAFTQIESNNLTTYLNRTFQGMGLPWTEDVNGGKMRGFNLYPSTVNLEEYVREDAARAYYWPYKSRPNLHVLLNTFANRIVWDGEAHDGHITASGVEITSRNGTVRVINAEKEVIVSAGALKSPAILELSGIGNPSVLDKHNIPVKVNLPTVGENLQDQVNSHMVASGNTSISGTKAVSYPDVYDVFGDEAESVAKQIRANLKQYAADTAKANGNIMKAADLERLFEVQYDLIFKGRVPIAEVLNYPGSATSVFAEFWALLPFARGSVHIGSSNPAEFPVINPNYFMLDWDAKSYVAVAKYIRRSFESYPLSSIVKESTPGYDVIPRNASEQSWKEWVFDKNYRSNFHPVGTAAMMPREIGGVVDERLNVYGTTNVRVVDASVLPFQVCGHLVSTLYAVAERAADLIKADAGRR
modifications: SIGNAL (1)..(19)
Regarding B2, the “Relative Activity [%] 1,10-Phenanthroline” value in series [1] amounted to 96.7%. In addition, the “Relative Activity [%] Proflavin hydrochloride” value in series [2] amounted to 67.7%.

B3: A298V: modified GLD: SEQ ID NO: 1 with substitution A298V (protein, listed as Aspergillus terreus)
chain: MLGKLSFLSALSLAVAAPLSNSTSAKYDYIVIGGGTSGLAVANRLSEDPNVNVLILEAGGSVWNNPNVTNVDGYGLAFGSDIDWQYQSVNQPYGGNLSQVLRAGKALGGTSTINGMAYTRAEDVQIDAWETIGNTGWTWKNLFPYYRKSENFTVPTKSQTSLGASYEAGAHGHEGPLDVAFTQIESNNLTTYLNRTFQGMGLPWTEDVNGGKMRGFNLYPSTVNLEEYVREDAARAYYWPYKSRPNLHVLLNTFANRIVWDGEAHDGHITASGVEITSRNGTVRVINAEKEVIVSAGVLKSPAILELSGIGNPSVLDKHNIPVKVNLPTVGENLQDQVNSHMDASGNTSISGTKAVSYPDVYDVFGDEAESVAKQIRANLKQYAADTAKANGNIMKAADLERLFEVQYDLIFKGRVPIAEVLNYPGSATSVFAEFWALLPFARGSVHIGSSNPAEFPVINPNYFMLDWDAKSYVAVAKYIRRSFESYPLSSIVKESTPGYDVIPRNASEQSWKEWVFDKNYRSNFHPVGTAAMMPREIGGVVDERLNVYGTTNVRVVDASVLPFQVCGHLVSTLYAVAERAADLIKADAGRR
modifications: SIGNAL (1)..(19)
B3: the “Relative Activity [%] 1,10-Phenanthroline” value in series [1] was 62.2%. In addition, the “Relative Activity [%] Proflavin hydrochloride” value in series [2] was determined as 51.2%.

B4: A298I: modified GLD: SEQ ID NO: 1 with substitution A298I (protein, listed as Aspergillus terreus)
chain: MLGKLSFLSALSLAVAAPLSNSTSAKYDYIVIGGGTSGLAVANRLSEDPNVNVLILEAGGSVWNNPNVTNVDGYGLAFGSDIDWQYQSVNQPYGGNLSQVLRAGKALGGTSTINGMAYTRAEDVQIDAWETIGNTGWTWKNLFPYYRKSENFTVPTKSQTSLGASYEAGAHGHEGPLDVAFTQIESNNLTTYLNRTFQGMGLPWTEDVNGGKMRGFNLYPSTVNLEEYVREDAARAYYWPYKSRPNLHVLLNTFANRIVWDGEAHDGHITASGVEITSRNGTVRVINAEKEVIVSAGILKSPAILELSGIGNPSVLDKHNIPVKVNLPTVGENLQDQVNSHMDASGNTSISGTKAVSYPDVYDVFGDEAESVAKQIRANLKQYAADTAKANGNIMKAADLERLFEVQYDLIFKGRVPIAEVLNYPGSATSVFAEFWALLPFARGSVHIGSSNPAEFPVINPNYFMLDWDAKSYVAVAKYIRRSFESYPLSSIVKESTPGYDVIPRNASEQSWKEWVFDKNYRSNFHPVGTAAMMPREIGGVVDERLNVYGTTNVRVVDASVLPFQVCGHLVSTLYAVAERAADLIKADAGRR
modifications: SIGNAL (1)..(19)
In the case of B4, the “Relative Activity [%] 1,10-Phenanthroline” value in series [1] is given as 73.7%. Besides, the “Relative Activity [%] Proflavin hydrochloride” value in series [2] was 43.8%.

B5: D343Y: modified GLD: SEQ ID NO: 1 with substitution D343Y (protein, listed as Aspergillus terreus)
chain: MLGKLSFLSALSLAVAAPLSNSTSAKYDYIVIGGGTSGLAVANRLSEDPNVNVLILEAGGSVWNNPNVTNVDGYGLAFGSDIDWQYQSVNQPYGGNLSQVLRAGKALGGTSTINGMAYTRAEDVQIDAWETIGNTGWTWKNLFPYYRKSENFTVPTKSQTSLGASYEAGAHGHEGPLDVAFTQIESNNLTTYLNRTFQGMGLPWTEDVNGGKMRGFNLYPSTVNLEEYVREDAARAYYWPYKSRPNLHVLLNTFANRIVWDGEAHDGHITASGVEITSRNGTVRVINAEKEVIVSAGALKSPAILELSGIGNPSVLDKHNIPVKVNLPTVGENLQDQVNSHMYASGNTSISGTKAVSYPDVYDVFGDEAESVAKQIRANLKQYAADTAKANGNIMKAADLERLFEVQYDLIFKGRVPIAEVLNYPGSATSVFAEFWALLPFARGSVHIGSSNPAEFPVINPNYFMLDWDAKSYVAVAKYIRRSFESYPLSSIVKESTPGYDVIPRNASEQSWKEWVFDKNYRSNFHPVGTAAMMPREIGGVVDERLNVYGTTNVRVVDASVLPFQVCGHLVSTLYAVAERAADLIKADAGRR
modifications: SIGNAL (1)..(19)
For the molecule B5, the “Relative Activity [%] 1,10-Phenanthroline” value in series [1] was 96.2%. Moreover, in series [2], the “Relative Activity [%] Proflavin hydrochloride” value is recorded as 55.6%.

B6: D343W: modified GLD: SEQ ID NO: 1 with substitution D343W (protein, listed as Aspergillus terreus)
chain: MLGKLSFLSALSLAVAAPLSNSTSAKYDYIVIGGGTSGLAVANRLSEDPNVNVLILEAGGSVWNNPNVTNVDGYGLAFGSDIDWQYQSVNQPYGGNLSQVLRAGKALGGTSTINGMAYTRAEDVQIDAWETIGNTGWTWKNLFPYYRKSENFTVPTKSQTSLGASYEAGAHGHEGPLDVAFTQIESNNLTTYLNRTFQGMGLPWTEDVNGGKMRGFNLYPSTVNLEEYVREDAARAYYWPYKSRPNLHVLLNTFANRIVWDGEAHDGHITASGVEITSRNGTVRVINAEKEVIVSAGALKSPAILELSGIGNPSVLDKHNIPVKVNLPTVGENLQDQVNSHMWASGNTSISGTKAVSYPDVYDVFGDEAESVAKQIRANLKQYAADTAKANGNIMKAADLERLFEVQYDLIFKGRVPIAEVLNYPGSATSVFAEFWALLPFARGSVHIGSSNPAEFPVINPNYFMLDWDAKSYVAVAKYIRRSFESYPLSSIVKESTPGYDVIPRNASEQSWKEWVFDKNYRSNFHPVGTAAMMPREIGGVVDERLNVYGTTNVRVVDASVLPFQVCGHLVSTLYAVAERAADLIKADAGRR
modifications: SIGNAL (1)..(19)
For the molecule B6, the “Relative Activity [%] 1,10-Phenanthroline” value in series [1] was found to be 94.2%. Further, the “Relative Activity [%] Proflavin hydrochloride” value in series [2] is reported as 57.9%.
